Patent publication US11352401

What follows are binders tested against T1, HLA-B*07 (human) (assay: UV peptide-exchange ELISA; +++ = yield >50%).
T1 construct: MHC monomer made peptide-receptive by UV cleavage of a UV-sensitive ligand; also called peptide-receptive MHC class I monomer
In the case of SPARASPAL [SPARASPAL (SEQ ID NO: 279)], the peptide exchange yield is reported as 50 to 75%.
Work on MPQIETRVIL [MPQIETRVIL (SEQ ID NO: 282)] yielded a peptide exchange yield of 50 to 75%.
VPISEEGTPVL [VPISEEGTPVL (SEQ ID NO: 280)] showed a peptide exchange yield of 50 to 75%.
For APSARVGVC [APSARVGVC (SEQ ID NO: 261)], the peptide exchange yield was 50 to 75%.
In the case of TPYQEHVAL [TPYQEHVAL (SEQ ID NO: 274)], the peptide exchange yield is reported as 50 to 75%.
Binder YPQHPGLNA [YPQHPGLNA (SEQ ID NO: 260)] has a peptide exchange yield of 50 to 75%.
Binder VPLPAGGGTV [VPLPAGGGTV (SEQ ID NO: 229)] has a peptide exchange yield of 50 to 75%.
Binder MPLPWSLALP [MPLPWSLALP (SEQ ID NO: 271)] has a peptide exchange yield of 50 to 75%.
For APHPPLSVV [APHPPLSVV (SEQ ID NO: 275)], the peptide exchange yield was 50 to 75%.
For RPMQQARAQL [RPMQQARAQL (SEQ ID NO: 459)], the peptide exchange yield was 50 to 75%.
NPFYPEVEL [NPFYPEVEL (SEQ ID NO: 222)] showed a peptide exchange yield of 50 to 75%.
Binder LPRAGGAFL [LPRAGGAFL (SEQ ID NO: 276)] has a peptide exchange yield of 50 to 75%.
RVIDAVRFTL [RVIDAVRFTL (SEQ ID NO: 253)] showed a peptide exchange yield of 50 to 75%.
VPLPAGGGTVL [VPLPAGGGTVL (SEQ ID NO: 230)] was tested, and the peptide exchange yield was 50 to 75%.
With RPAATAVISL [RPAATAVISL (SEQ ID NO: 237)] the peptide exchange yield was 50 to 75%.
For RIREHVPQL [RIREHVPQL (SEQ ID NO: 245)], the peptide exchange yield was 50 to 75%.
With RALLARLLL [RALLARLLL (SEQ ID NO: 247)] the peptide exchange yield was 50 to 75%.
APREEQQRSL [APREEQQRSL (SEQ ID NO: 287)] was tested, and the peptide exchange yield was 50 to 75%.
For SPQRLRGLLL [SPQRLRGLLL (SEQ ID NO: 292)], the peptide exchange yield was 50 to 75%.

These binders were tested against T2, HLA-A*24 (human) (assay: UV peptide-exchange ELISA; +++ = yield >50%).
T2 construct: MHC monomer made peptide-receptive by UV cleavage of a UV-sensitive ligand; also called peptide-receptive MHC class I monomer
YYADKKTFIVL [YYADKKTFIVL (SEQ ID NO: 17)] gave a peptide exchange yield of 50 to 75%.
SYIGLPLTL [SYIGLPLTL (SEQ ID NO: 73)] gave a peptide exchange yield of 50 to 75%.
For RYKQDVERF [RYKQDVERF (SEQ ID NO: 383)], the peptide exchange yield was 50 to 75%.
For VQQWSVAVF [VQQWSVAVF (SEQ ID NO: 7)], the peptide exchange yield was 50 to 75%.
Work on LLIKLLQTF [LLIKLLQTF (SEQ ID NO: 54)] yielded a peptide exchange yield of 50 to 75%.
Binder WYGWHFPEL [WYGWHFPEL (SEQ ID NO: 76)] has a peptide exchange yield of 50 to 75%.
VFQEKHHVI [VFQEKHHVI (SEQ ID NO: 380)] gave a peptide exchange yield of 50 to 75%.
IYHSHHPTL [IYHSHHPTL (SEQ ID NO: 382)] gave a peptide exchange yield of 50 to 75%.
In the case of KQMEDGHTLF [KQMEDGHTLF (SEQ ID NO: 36)], the peptide exchange yield is reported as 50 to 75%.
With NYAENILTL [NYAENILTL (SEQ ID NO: 61)] the peptide exchange yield was 50 to 75%.
Binder KSSVIASLLF [KSSVIASLLF (SEQ ID NO: 33)] has a peptide exchange yield of 50 to 75%.
Binder SYSSCYSF [SYSSCYSF (SEQ ID NO: 14)] has a peptide exchange yield of 50 to 75%.
TYLSIFDQL [TYLSIFDQL (SEQ ID NO: 60)] gave a peptide exchange yield of 50 to 75%.
Work on TYNPDFSSL [TYNPDFSSL (SEQ ID NO: 16)] yielded a peptide exchange yield of 50 to 75%.
SYEVRSTF [SYEVRSTF (SEQ ID NO: 21)] was tested, and the peptide exchange yield was 50 to 75%.
Work on QYEPPSAPSTTF [QYEPPSAPSTTF (SEQ ID NO: 40)] yielded a peptide exchange yield of 50 to 75%.
Work on NYIVPDKQIF [NYIVPDKQIF (SEQ ID NO: 379)] yielded a peptide exchange yield of 50 to 75%.
Binder RWLPQKNAAQF [RWLPQKNAAQF (SEQ ID NO: 387)] has a peptide exchange yield of 50 to 75%.

The binders below were run against T3, HLA-A*03 (human) (assay: UV peptide-exchange ELISA; ++++ = yield >75%).
T3 construct: MHC monomer made peptide-receptive by UV cleavage of a UV-sensitive ligand; also called peptide-receptive MHC class I monomer
For MMFSGPQILKL [MMFSGPQILKL (SEQ ID NO: 215)], the peptide exchange yield was > 75%.
For RIADIFVKK [RIADIFVKK (SEQ ID NO: 455)], the peptide exchange yield was > 75%.
KVYTPSISK [KVYTPSISK (SEQ ID NO: 454)] was tested, and the peptide exchange yield was > 75%.
RTMSEAALVRK [RTMSEAALVRK (SEQ ID NO: 214)] was tested, and the peptide exchange yield was > 75%.
For RILNQILYY [RILNQILYY (SEQ ID NO: 217)], the peptide exchange yield was > 75%.
TVNPVAIHK [TVNPVAIHK (SEQ ID NO: 211)] was tested, and the peptide exchange yield was > 75%.
With GLASRILDAK [GLASRILDAK (SEQ ID NO: 208)] the peptide exchange yield was > 75%.
In the case of SLDGAARPK [SLDGAARPK (SEQ ID NO: 205)], the peptide exchange yield is reported as > 75%.
For RSFNGLLTMY [RSFNGLLTMY (SEQ ID NO: 207)], the peptide exchange yield was > 75%.
SINKPTSER [SINKPTSER (SEQ ID NO: 457)] was tested, and the peptide exchange yield was > 75%.
RLRSSLVFK [RLRSSLVFK (SEQ ID NO: 219)] was tested, and the peptide exchange yield was > 75%.
AINTSIKNK [AINTSIKNK (SEQ ID NO: 453)] was tested, and the peptide exchange yield was > 75%.
In the case of RTQIPMSEK [RTQIPMSEK (SEQ ID NO: 209)], the peptide exchange yield is reported as > 75%.
With ATSGVPVYK [ATSGVPVYK (SEQ ID NO: 210)] the peptide exchange yield was > 75%.
With SMFTAILKK [SMFTAILKK (SEQ ID NO: 456)] the peptide exchange yield was > 75%.
In the case of KLIDLSQVMY [KLIDLSQVMY (SEQ ID NO: 206)], the peptide exchange yield is reported as > 75%.
For GIADFVLKY [GIADFVLKY (SEQ ID NO: 458)], the peptide exchange yield was > 75%.
KAYEQVMHY [KAYEQVMHY (SEQ ID NO: 212)] was tested, and the peptide exchange yield was > 75%.

What follows are binders tested against T4, HLA-B*08 (human) (assay: UV peptide-exchange ELISA; ++++ = yield >75%).
T4 construct: MHC monomer made peptide-receptive by UV cleavage of a UV-sensitive ligand; also called peptide-receptive MHC class I monomer
For YMHKLLVL [YMHKLLVL (SEQ ID NO: 301)], the peptide exchange yield was > 75%.
For EAMLRNKEL [EAMLRNKEL (SEQ ID NO: 312)], the peptide exchange yield was > 75%.
For LPFPKFTV [LPFPKFTV (SEQ ID NO: 303)], the peptide exchange yield was > 75%.
In the case of AIISRLVAL [AIISRLVAL (SEQ ID NO: 314)], the peptide exchange yield is reported as > 75%.
For EAAIRSVEL [EAAIRSVEL (SEQ ID NO: 318)], the peptide exchange yield was > 75%.
For MLKQKVEEL [MLKQKVEEL (SEQ ID NO: 308)], the peptide exchange yield was > 75%.
With MAQFKEISL [MAQFKEISL (SEQ ID NO: 299)] the peptide exchange yield was > 75%.
With ILKVKVGL [ILKVKVGL (SEQ ID NO: 306)] the peptide exchange yield was > 75%.
LPPKKFVL [LPPKKFVL (SEQ ID NO: 310)] was tested, and the peptide exchange yield was > 75%.
In the case of DIYQRALNL [DIYQRALNL (SEQ ID NO: 315)], the peptide exchange yield is reported as > 75%.
With EIRIRVVQM [EIRIRVVQM (SEQ ID NO: 311)] the peptide exchange yield was > 75%.
For ILLPRTVSL [ILLPRTVSL (SEQ ID NO: 307)], the peptide exchange yield was > 75%.
For ELKKKEYEEL [ELKKKEYEEL (SEQ ID NO: 313)], the peptide exchange yield was > 75%.
For RAQLKLVAL [RAQLKLVAL (SEQ ID NO: 297)], the peptide exchange yield was > 75%.
In the case of LVKVKVLL [LVKVKVLL (SEQ ID NO: 317)], the peptide exchange yield is reported as > 75%.
ELKKLYCQI [ELKKLYCQI (SEQ ID NO: 304)] was tested, and the peptide exchange yield was > 75%.
ALKLRVAVL [ALKLRVAVL (SEQ ID NO: 305)] was tested, and the peptide exchange yield was > 75%.
For MPMQDIKM [MPMQDIKM (SEQ ID NO: 296)], the peptide exchange yield was > 75%.
